Test results as given in patent US20140314780A1, “Compositions Using Antibodies Directed to GPNMB and Uses Thereof” (Celldex Therapeutics, Inc., priority 2008, published 2014).
Entries after “also recorded” stand apart in the source; their conditions may differ. Each block holds one compound with its values, some of them ahead of it.

Experiments:
[1] = system: GPNMB surface expression on WM2664 melanoma cells; assay: Flow cytometry of GPNMB surface expression, WM2664 cells; assay type: cell-based, human; conditions: for GPNMB surface expression, flow cytometry GeoMean: WM2664, CR011 (anti-GPNMB) primary antibody; for GPNMB surface expression: melanoma cells (WM2664), 48 hours (Table 37, bottom right)
Experimental: The following day, cells were treated as indicated in the figures/legends, harvested with versene (Invitrogen), washed with PBS and incubated with primary antibody (10 μg/mL) diluted in staining buffer (PBS pH 7.4, 4% FBS, 0.1% sodium azide) for 30 minutes on ice. […] After incubation with primary antibody, samples were washed with staining buffer and then incubated with secondary antibody (PE-conjugated anti-human antibody; 1:100) for 30 minutes on ice. After incubation, samples were washed with staining buffer and examined on a Becton Dickinson FACSCalibur flow cytometer (BD Immunocytometry Systems, San Jose, Calif.). Data analysis was performed with Becton Dickinson Cell Quest software and the geometric mean fluorescence intensity (GeoMean) was determined for each sample.
For the data shown in Table 37, flow cytometry was performed on intact, non-permeabilized cells using the indicated primary monoclonal antibodies. The CR011 antibody utilized was not MMAE-conjugated, but is the same antibody used to generate CR011-vcMMAE. The results are reported as GeoMeans. For the data shown in the top panel of Table 37, A375 (melanoma) or SF539 (glioblastoma) cells were treated with the indicated concentrations of MEKi (U0126), RAFKi (553013) or ERKi (FR180204) for 12, 24 or 48 hours prior to analysis. For the data shown in the bottom left panel of Table 37, SKMEL2 (melanoma) cells were treated with MEKi (U0126; 10 uM), imatinib (20 uM), p38i (p38 MAPKi SB202190; 50 uM), NH4Cl (ammonium chloride; 20 mM) or CLQ (chloroquine; 20 uM) for 48 hours prior to analysis. For the data shown in the bottom right panel of Table 37, WM2664 (melanoma) cells were treated with MON (monensin) or MMPi (GM6001) for 48 hours prior to analysis.

shed GPNMB [2] = assay: GPNMB shedding: immunoblotting of conditioned media (supernatants); assay type: cell-based, human; conditions: conditioned media of WM2664, UACC62; 48 hours (FIG. 7A, 7B)
Excerpt: Shedding of membrane proteins is a common phenomenon that may affect ADC activity. To investigate potential GPNMB shedding, conditioned media collected from melanoma cell lines was immunoblotted for GPNMB (FIG. 7A). […] Shed GPNMB was also readily detected in conditioned media harvested from several other melanoma and glioblastoma cell lines examined, although a very low level of shed GPNMB was found in conditioned media harvested from A375 melanoma cells, a finding which is consistent with the low basal level of GPNMB expression by these cells.

GPNMB [3] = assay: Immunoblotting for GPNMB on whole-cell lysates of cancer cell lines after drug exposure; assay type: cell-based, human; conditions: whole-cell lysates, 48 hours (FIG. 7)
Excerpt: Cancer cell lines were of human origin and were obtained from the American Type Culture Collection (Manassas, Va.) and from the National Cancer Institute (Bethesda, Md.) and cultured in RPMI-1640 supplemented with 10% FBS (growth media). Sources of reagents were as follows: RAFKi (553013), MEKi (U0126), MEKi (PD98059), MEKi (444939), ERKi (FR180204), p38 MAPKi (SB202190), p38 MAPKi (SB203580), aurora kinase inhibitor (189404), JNK inhibitor (420119), MMPi (GM6001) were from EMD Chemicals (San Diego, Calif.). ERKi (A6355), RAFKi: (GW5074), ammonium chloride (NH4Cl), chloroquine, monensin, cyclohexamide and emetine were from Sigma (Saint Louis, Mo.). HSP90i (geldanamycin) was from AG Scientific (San Diego, Calif.) and imatinib (Gleevec) was purchased from a pharmacy.
Cells were seeded in 6-well tissue culture dishes at a subconfluent density and allowed to attach overnight. For harvesting cell lysates, media was removed, cells were briefly washed with serum-free media and then 1× Tris-glycine SDS sample buffer (Invitrogen, Carlsbad, Calif.) supplemented with 10 mM dithiothreitol (Sigma) was added directly to the wells. Cell lysates were then collected and boiled for 10 minutes. For preparing conditioned media, drug treatments were performed in a minimum volume of growth media (1.5 mL/well). Following 48 hours of incubation, conditioned media was collected, briefly microfuged, mixed with an equal volume of 2× Tris-glycine SDS sample buffer (Invitrogen, Carlsbad, Calif.) supplemented with 20 mM dithiothreitol (Sigma) and boiled for 10 minutes. For cell lysates, samples were quantified and an equal quantity of protein/lane was resolved on 4-20% gradient polyacrylamide gels (Invitrogen) and then transferred to nitrocellulose filters (Invitrogen). The volume of conditioned media loaded/lane was adjusted based on the protein concentration determined in the respective cell lysates. Immunoblotting was performed using standard procedures and the following primary antibodies: MARTI (sc-20032), TYRP2 (sc-25544), TYRP1 (sc-25543), PMEL17 (sc-15010), MAGEA1 (sc-20033), MCSP (sc-20162), MTf (sc-26651), MCAM (sc-18942), pp-ERK (sc-7976) and ERK (sc-94) (preceding antibodies were purchased from Santa Cruz Biotechnologies, Santa Cruz, Calif.), GPNMB (AF2550; R & D Systems, Minneapolis Minn.), actin (A5060; Sigma). Following incubation with the appropriate horseradish peroxidase-conjugated secondary antibodies, enhanced chemiluminescence (GE Healthcare, Chalfont St. Giles, United Kingdom) was used for detection.

shed GPNMB [4] = assay: Immunoprecipitation of shed GPNMB; assay type: binding, human
CG56972 expressing cells [5] = assay: Effect of naked mAb on CG56972 expressing cells in vivo; conditions: naked IgG2 mAb
Excerpt: (§1) Fully human monoclonal antibodies (mAb)-IgG2 to CG56972/GPNMB, an antigen predominantly found on the surface of melanoma and brain tumor cells, were generated. […] Thus it was examined whether isotype switching from an IgG2 to an IgG1 might enable the mAb to kill human melanoma cells through ADCC effector functions.

CG56972 expressing cells [6] = assay: Effect of naked mAb on CG56972 expressing cells in vitro; assay type: cell-based; conditions: naked IgG2 mAb
Excerpt: as §1

GPNMB [7] = target: T1, GPNMB (Homo sapiens, UniProt Q14956); assay: Epitope binning of anti-GPNMB antibodies (competitive binding)
T1 construct: V5His; made in house
T1 sequence (Q14956 23-492): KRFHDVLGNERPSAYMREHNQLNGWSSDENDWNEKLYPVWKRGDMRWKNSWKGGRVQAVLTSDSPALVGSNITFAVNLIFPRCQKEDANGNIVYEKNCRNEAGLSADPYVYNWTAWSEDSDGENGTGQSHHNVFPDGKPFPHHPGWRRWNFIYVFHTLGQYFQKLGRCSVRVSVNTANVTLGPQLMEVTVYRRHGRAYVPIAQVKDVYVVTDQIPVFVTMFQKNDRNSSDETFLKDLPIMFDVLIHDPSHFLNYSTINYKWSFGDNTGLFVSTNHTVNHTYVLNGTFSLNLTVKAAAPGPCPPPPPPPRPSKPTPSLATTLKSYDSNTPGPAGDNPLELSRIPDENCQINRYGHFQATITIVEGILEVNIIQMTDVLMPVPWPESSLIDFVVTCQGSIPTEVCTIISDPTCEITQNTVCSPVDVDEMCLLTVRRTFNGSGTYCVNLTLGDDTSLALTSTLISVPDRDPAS
Excerpt: Certain antibodies, described herein were binned in accordance with the protocol described in U.S. Patent Application Publication No. 20030157730. […] Competitive binding by antibodies from […] supports antibody specificity for similar or adjacent epitopes. Non competitive binding supports antibody specificity for unique epitopes.
Three bins were created to further test the binding of six anti-GPNMB antibodies. Bin 1 included GPNMB antibodies (1.2.1), (1.10.1), and (2.22.1). Bin 2 included GPNMB antibodies (2.3.1) and (1.15.1), and Bin 3 included GPNMB antibody (2.10.1). The results of the binning assays are provided below in Tables 4 and 5.

Compound: CNC(=O)[C@H](Cc1c[nH]c2ccccc12)NC(=O)[C@@H](CC(=O)NO)CC(C)C [GM6001]
- GPNMB surface expression, flow cytometry GeoMean ([1]; MMPi 25 uM): 55.9
- GPNMB surface expression, flow cytometry GeoMean ([1]; MMPi 50 uM): 68.9
- GPNMB surface expression, flow cytometry GeoMean ([1]; MMPi 100 uM): 66.8
- GPNMB surface expression [1]: increased GPNMB surface expression
- GPNMB shedding (shed GPNMB [2]): decreased or eliminated

Compound: CC[C@@]1([C@@H]2O[C@@H]([C@H]3O[C@@](O)(CO)[C@H](C)C[C@@H]3C)C[C@@H]2C)CC[C@H]([C@]2(C)CC[C@]3(C[C@H](O)[C@@H](C)[C@@H]([C@@H](C)[C@@H](OC)[C@H](C)C(=O)O)O3)O2)O1 [monensin]
- faster migrating ~110 kDa GPNMB species (GPNMB [3]): increased the expression
- slowest migrating cell-associated ~130 kDa GPNMB species (GPNMB [3]): decreased or eliminated
- GPNMB surface expression, flow cytometry GeoMean ([1]; MON 250 nM): 88.9
- GPNMB surface expression, flow cytometry GeoMean ([1]; MON 500 nM): 86.8
- GPNMB surface expression [1]: increased GPNMB surface expression
- GPNMB shedding (shed GPNMB [2]): decreased or eliminated; also recorded: strong inhibition

- epitope bin (GPNMB [7]; Table 4): VIII
- binning assay signal (antibody pair matrix) (GPNMB [7]; Table 4, paired with column BB): −19
- binning assay signal (antibody pair matrix) (GPNMB [7]; Table 4, paired with column antibody 1.1): 91
- binning assay signal (antibody pair matrix) (GPNMB [7]; Table 4, paired with column antibody 1.11): 10
- binning assay signal (antibody pair matrix) (GPNMB [7]; Table 4, paired with column antibody 1.12): 15
- binning assay signal (antibody pair matrix) (GPNMB [7]; Table 4, paired with column antibody 1.13): 13
- binning assay signal (antibody pair matrix) (GPNMB [7]; Table 4, paired with column antibody 1.15): 0
- binning assay signal (antibody pair matrix) (GPNMB [7]; Table 4, paired with column antibody 1.2): 79
- binning assay signal (antibody pair matrix) (GPNMB [7]; Table 4, paired with column antibody 1.3): 71
- binning assay signal (antibody pair matrix) (GPNMB [7]; Table 4, paired with column antibody 1.5): 15
- binning assay signal (antibody pair matrix) (GPNMB [7]; Table 4, paired with column antibody 1.7): 21
- binning assay signal (antibody pair matrix) (GPNMB [7]; Table 4, paired with column antibody 1.8): 8
- binning assay signal (antibody pair matrix) (GPNMB [7]; Table 4, paired with column antibody 1.9): 12
- binning assay signal (antibody pair matrix) (GPNMB [7]; Table 4, paired with column xV5): 89
- epitope bin (GPNMB [7]; Table 5, Cut-off = 90): VIII
- binning assay signal (antibody pair matrix) (GPNMB [7]; Table 5, paired with column BB): 59
- binning assay signal (antibody pair matrix) (GPNMB [7]; Table 5, paired with column antibody 1.1): 127
- binning assay signal (antibody pair matrix) (GPNMB [7]; Table 5, paired with column antibody 1.11): 19
- binning assay signal (antibody pair matrix) (GPNMB [7]; Table 5, paired with column antibody 1.12): 21
- binning assay signal (antibody pair matrix) (GPNMB [7]; Table 5, paired with column antibody 1.13): 5
- binning assay signal (antibody pair matrix) (GPNMB [7]; Table 5, paired with column antibody 1.15): 0
- binning assay signal (antibody pair matrix) (GPNMB [7]; Table 5, paired with column antibody 1.2): 90
- binning assay signal (antibody pair matrix) (GPNMB [7]; Table 5, paired with column antibody 1.3): 51
- binning assay signal (antibody pair matrix) (GPNMB [7]; Table 5, paired with column antibody 1.5): −9
- binning assay signal (antibody pair matrix) (GPNMB [7]; Table 5, paired with column antibody 1.7): 17
- binning assay signal (antibody pair matrix) (GPNMB [7]; Table 5, paired with column antibody 1.8): 12
- binning assay signal (antibody pair matrix) (GPNMB [7]; Table 5, paired with column antibody 1.9): 19
- binning assay signal (antibody pair matrix) (GPNMB [7]; Table 5, paired with column xV5): 125
- epitope bin (GPNMB [7]; six anti-GPNMB antibodies, three bins): Bin 2
Compound: CR011: fully human monoclonal antibody that specifically binds to GPNMB; VH SEQ ID NO: 20, VL SEQ ID NO: 29
- recognition of shed GPNMB (shed GPNMB [4]): recognize shed GPNMB
- effect on CG56972 expressing cells (CG56972 expressing cells [5]): no effect
- effect on CG56972 expressing cells (CG56972 expressing cells [6]): no effect
